Positions count from the first letter of the chain named.

What all share (experiment): SPR; KD relative to WT C2;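 also: biacore SPR at 37 °C, anti-C2 mAbs captured on an anti-human IgG chip, alanine or serine C2 surface mutants tested, KD from 1:1 fit compared with wild-type C2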
For orientation: SPR reads the build-up and loss of mass on a sensor chip optically.

One test deals with T1, human C2 N327A (human, UniProt P06681 21-752).
T1 sequence: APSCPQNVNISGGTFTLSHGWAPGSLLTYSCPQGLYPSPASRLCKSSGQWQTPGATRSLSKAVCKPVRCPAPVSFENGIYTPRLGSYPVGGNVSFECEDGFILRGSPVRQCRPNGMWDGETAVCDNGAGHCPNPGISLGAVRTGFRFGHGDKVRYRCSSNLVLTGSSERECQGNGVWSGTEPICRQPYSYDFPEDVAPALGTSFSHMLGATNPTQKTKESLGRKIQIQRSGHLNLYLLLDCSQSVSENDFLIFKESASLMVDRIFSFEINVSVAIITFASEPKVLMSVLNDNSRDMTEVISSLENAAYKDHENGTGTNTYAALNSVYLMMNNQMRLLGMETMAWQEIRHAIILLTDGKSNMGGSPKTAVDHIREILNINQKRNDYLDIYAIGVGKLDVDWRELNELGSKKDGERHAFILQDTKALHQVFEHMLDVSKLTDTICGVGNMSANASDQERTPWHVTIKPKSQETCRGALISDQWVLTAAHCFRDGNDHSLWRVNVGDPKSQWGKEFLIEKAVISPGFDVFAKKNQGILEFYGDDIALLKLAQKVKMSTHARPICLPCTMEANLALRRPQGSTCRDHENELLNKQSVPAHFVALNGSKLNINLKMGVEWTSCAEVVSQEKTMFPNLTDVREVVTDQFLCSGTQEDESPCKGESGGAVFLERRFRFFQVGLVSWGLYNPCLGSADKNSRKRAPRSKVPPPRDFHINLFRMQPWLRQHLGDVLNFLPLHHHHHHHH

The target in another test is T2, human C2 D269A (human, UniProt P06681 21-752).
T2 sequence: T1 sequence with D249A, A307N

The next test has as its target T3, human C2 G414A (human, UniProt P06681 21-752).
T3 sequence: T1 sequence with A307N, G394A

For a further test, the target named is T4, human C2 E476A (human, UniProt P06681 21-752).
T4 sequence: T1 sequence with A307N, E456A

B1: RF16-214 (antibody, V domains shown)
VH: EVQLLESGGGLVQPGGSLRLSCAASGFTFSWYQMMWVRQAPGKGLEWVSRIYPSGGGTAYADSVKGRFTISRDNSKNTLYLQMNSLRAEDTAVYYCARDAGYGDNWGQGTLVTVSS
VL: QSALTQPPSVSVSPGQTASITCSGDKLGEKYASWYQQKAGQSPVMVIYQDRKRPSGIPERFSGSNSGNTATLTISGTQAMDEADYYCQAWDTRAVVFGGGTKLTVLG
As for B1, the Fold diff with human C2 N327A was 7 fold; in the test with human C2 D269A it was 1 fold; in the test with human C2 G414A, 0 fold; with human C2 E476A it was 2 fold.
